Test results reported in the RNAGym collection of RNA variant scans (doi:10.1073/pnas.2313332121).

B1: TPR t1 (parent)
chain: GACCAAUCUGCCCUCAGAGCUCGAGAACAUCUUCGGAUGCAGAGGAGGCAGGCUUCGGUGGCGCGAUAGCGCCAACGUCCUCAACCUCCAAUGCAUCCCACCACAUGAUGAUGCCUGAAGAGCCUUGGUUUUUUG

Variants of: B1
Assay: polymerase ribozyme fitness, log enrichment relative to wild type (log ratio); higher = more active; in vitro selection for triplet polymerase activity
Outline: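 PCR was used to build mutant libraries for each subunit of a heterodimeric triplet polymerase ribozyme, which were then transcribed. A single in vitro selection round, in triplicate, used a frozen incubation at −7 °C and recovered extended constructs by gel excision, streptavidin beads and RT-PCR. Fitness is the logarithm of genotype enrichment relative to wild-type enrichment, averaged over replicates with inverse-variance weights. The logarithm is base 2, and after Illumina sequencing only genotypes with ≥10 input reads and ≥1 read per output were kept.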

**Q.** With U32C G60C A75C C79G as the variant, how does the “polymerase ribozyme fitness (log ratio)” value read?
**A.** -1.89

**Q.** Which “polymerase ribozyme fitness (log ratio)” value does the source give for A29G U130G here?
**A.** -1.15

**Q.** With U33A G58A as the variant, how does the “polymerase ribozyme fitness (log ratio)” value read?
**A.** -5.07

**Q.** With U30C C62U U78C as the variant, how does the “polymerase ribozyme fitness (log ratio)” value read?
**A.** -3.36

**Q.** For C31A A43G U59G C98G A100G A111G, which “polymerase ribozyme fitness (log ratio)” value is on record?
**A.** -6.13

**Q.** Which “polymerase ribozyme fitness (log ratio)” value does the source give for U30C G44U A50G C88U here?
**A.** -2.96

**Q.** Which “polymerase ribozyme fitness (log ratio)” value does the source give for C28U G69U here?
**A.** -0.614

**Q.** For A29G C101G, which “polymerase ribozyme fitness (log ratio)” value is on record?
**A.** -4.66

**Q.** For A29G G48U G57C C73U, which “polymerase ribozyme fitness (log ratio)” value is on record?
**A.** -1.71

**Q.** For U33A G51A C72U U112A, which “polymerase ribozyme fitness (log ratio)” value is on record?
**A.** -6.67

**Q.** With A29U G61C C72A as the variant, how does the “polymerase ribozyme fitness (log ratio)” value read?
**A.** -1.68

**Q.** Which “polymerase ribozyme fitness (log ratio)” value does the source give for C28U G110A here?
**A.** 0.874

**Q.** For A29U C70G, which “polymerase ribozyme fitness (log ratio)” value is on record?
**A.** -3.31

**Q.** With A29G U87A C104G A111U as the variant, how does the “polymerase ribozyme fitness (log ratio)” value read?
**A.** -4.03

**Q.** For A29G G58U U59A, which “polymerase ribozyme fitness (log ratio)” value is on record?
**A.** -1.29

**Q.** For C31U C82U, which “polymerase ribozyme fitness (log ratio)” value is on record?
**A.** -5.12

**Q.** With C31G C72A as the variant, how does the “polymerase ribozyme fitness (log ratio)” value read?
**A.** -6.86

**Q.** With U32C C64U G93A C114G U134G as the variant, how does the “polymerase ribozyme fitness (log ratio)” value read?
**A.** -2.93

**Q.** Which “polymerase ribozyme fitness (log ratio)” value does the source give for U33A C72G A74C G127C here?
**A.** -7.04

**Q.** Which “polymerase ribozyme fitness (log ratio)” value does the source give for U30A C73A here?
**A.** -5.19

**Q.** With U33A A50U G93C A95G C101G as the variant, how does the “polymerase ribozyme fitness (log ratio)” value read?
**A.** -7.02

**Q.** With C28U G42C as the variant, how does the “polymerase ribozyme fitness (log ratio)” value read?
**A.** -3.36

**Q.** With C28A U96A C97A G110A C124A as the variant, how does the “polymerase ribozyme fitness (log ratio)” value read?
**A.** -3.05

**Q.** For C28U C62A, which “polymerase ribozyme fitness (log ratio)” value is on record?
**A.** -2.73

**Q.** Which “polymerase ribozyme fitness (log ratio)” value does the source give for A29G C64U C104A U106A U112C here?
**A.** -0.729

**Q.** With C28U C49G A91U U106A as the variant, how does the “polymerase ribozyme fitness (log ratio)” value read?
**A.** -5.37

**Q.** With C31U U81A C88G A95U U112A as the variant, how does the “polymerase ribozyme fitness (log ratio)” value read?
**A.** -6.66

**Q.** Which “polymerase ribozyme fitness (log ratio)” value does the source give for U30G U54A U112C here?
**A.** -5.05

**Q.** With U32C C62U G77C A100C U106G as the variant, how does the “polymerase ribozyme fitness (log ratio)” value read?
**A.** -3.33

**Q.** Which “polymerase ribozyme fitness (log ratio)” value does the source give for U32C C40U C124A here?
**A.** 1.21

**Q.** With U30A A37U as the variant, how does the “polymerase ribozyme fitness (log ratio)” value read?
**A.** -4.9

**Q.** For U32C G69C, which “polymerase ribozyme fitness (log ratio)” value is on record?
**A.** -2.01

**Q.** For C31U C88G, which “polymerase ribozyme fitness (log ratio)” value is on record?
**A.** -6.51

**Q.** For A29C A75G U78G, which “polymerase ribozyme fitness (log ratio)” value is on record?
**A.** -2.56

**Q.** For C28U C31A C85G A119G G120A, which “polymerase ribozyme fitness (log ratio)” value is on record?
**A.** -7.42

**Q.** For U30A A111U, which “polymerase ribozyme fitness (log ratio)” value is on record?
**A.** -4.14

**Q.** Which “polymerase ribozyme fitness (log ratio)” value does the source give for C31U G113A here?
**A.** -3.94

**Q.** With A29G A95G as the variant, how does the “polymerase ribozyme fitness (log ratio)” value read?
**A.** -1.84

**Q.** For C28G U54G C97U U130A U131C, which “polymerase ribozyme fitness (log ratio)” value is on record?
**A.** -3.57

**Q.** For U33A C53A C62U, which “polymerase ribozyme fitness (log ratio)” value is on record?
**A.** -5.53

**Q.** Which “polymerase ribozyme fitness (log ratio)” value does the source give for A29U U109G G122A here?
**A.** -1.47

**Q.** With A29U C53A as the variant, how does the “polymerase ribozyme fitness (log ratio)” value read?
**A.** -1.37

**Q.** With A29U C98U as the variant, how does the “polymerase ribozyme fitness (log ratio)” value read?
**A.** -3.59

**Q.** With A29U G48C C53U as the variant, how does the “polymerase ribozyme fitness (log ratio)” value read?
**A.** -3.4

**Q.** For A29G G69A A75U C104U U112G, which “polymerase ribozyme fitness (log ratio)” value is on record?
**A.** -4.35

**Q.** Which “polymerase ribozyme fitness (log ratio)” value does the source give for C28U C56U here?
**A.** -1.85

**Q.** For A29U A41C A119G C123G, which “polymerase ribozyme fitness (log ratio)” value is on record?
**A.** -1.43

**Q.** Which “polymerase ribozyme fitness (log ratio)” value does the source give for A29G C101A A118U here?
**A.** -3.6

**Q.** With C28G C56A C73G U106C as the variant, how does the “polymerase ribozyme fitness (log ratio)” value read?
**A.** -4.85

**Q.** For A29U G48A G63C A111C, which “polymerase ribozyme fitness (log ratio)” value is on record?
**A.** -2.36

**Q.** For A29G C53G U106A G117C, which “polymerase ribozyme fitness (log ratio)” value is on record?
**A.** -3.33

**Q.** With C31U G69U C98U A119G as the variant, how does the “polymerase ribozyme fitness (log ratio)” value read?
**A.** -3.7

**Q.** With U33A G57U C124A U126A as the variant, how does the “polymerase ribozyme fitness (log ratio)” value read?
**A.** -3.51

**Q.** With A29U C56U C73U as the variant, how does the “polymerase ribozyme fitness (log ratio)” value read?
**A.** -1.33

**Q.** Which “polymerase ribozyme fitness (log ratio)” value does the source give for C28U C40G G48U C85A here?
**A.** -3.6

**Q.** With A29C G44C U92C as the variant, how does the “polymerase ribozyme fitness (log ratio)” value read?
**A.** -5.1

**Q.** With C31U C70U as the variant, how does the “polymerase ribozyme fitness (log ratio)” value read?
**A.** -4.33

**Q.** For A29G A90C U92C, which “polymerase ribozyme fitness (log ratio)” value is on record?
**A.** -3.09

**Q.** With C31U G36U C73U C82A C86G G113U U133A as the variant, how does the “polymerase ribozyme fitness (log ratio)” value read?
**A.** -6.04

**Q.** With A29G C73A C76A as the variant, how does the “polymerase ribozyme fitness (log ratio)” value read?
**A.** -3.61

**Q.** With C31U C79G C124G as the variant, how does the “polymerase ribozyme fitness (log ratio)” value read?
**A.** -5.57

**Q.** With C31U G36U G60C C123U as the variant, how does the “polymerase ribozyme fitness (log ratio)” value read?
**A.** -5.45

**Q.** Which “polymerase ribozyme fitness (log ratio)” value does the source give for C28U C49A C72A C114G here?
**A.** -5.7

**Q.** Which “polymerase ribozyme fitness (log ratio)” value does the source give for U32A U33C G77C C102G G107A A121G here?
**A.** -7.93

**Q.** With U32C G60C U106A G113A C124U as the variant, how does the “polymerase ribozyme fitness (log ratio)” value read?
**A.** -3.04

**Q.** For C28A U54A G61U G110U, which “polymerase ribozyme fitness (log ratio)” value is on record?
**A.** 2.18

**Q.** With C31A G69U as the variant, how does the “polymerase ribozyme fitness (log ratio)” value read?
**A.** -2.98

**Q.** For C28U G39U A111C, which “polymerase ribozyme fitness (log ratio)” value is on record?
**A.** -6.59

**Q.** For C31U G63A, which “polymerase ribozyme fitness (log ratio)” value is on record?
**A.** -5.33

**Q.** For C28G C62G C98U C124U, which “polymerase ribozyme fitness (log ratio)” value is on record?
**A.** -5.55

**Q.** With U32C G63U G113U as the variant, how does the “polymerase ribozyme fitness (log ratio)” value read?
**A.** -4.99

**Q.** With A29C A41C C56G U59A G69U C82U A121C G135C as the variant, how does the “polymerase ribozyme fitness (log ratio)” value read?
**A.** -6.04

**Q.** With C31U U32G G35U G61U A91C A121U as the variant, how does the “polymerase ribozyme fitness (log ratio)” value read?
**A.** -7

**Q.** Which “polymerase ribozyme fitness (log ratio)” value does the source give for U32C A41U C124G G128A here?
**A.** -1.01

**Q.** For A29U C56U A74U A100C, which “polymerase ribozyme fitness (log ratio)” value is on record?
**A.** -3.55

**Q.** With C28U G44U C62U G63C G110C U126A U132C as the variant, how does the “polymerase ribozyme fitness (log ratio)” value read?
**A.** -4.61

**Q.** With U32C G35C C53A U78A as the variant, how does the “polymerase ribozyme fitness (log ratio)” value read?
**A.** -4.25

**Q.** Which “polymerase ribozyme fitness (log ratio)” value does the source give for C28G C34G G42U A46G C56A C104A A111G U131G here?
**A.** -5.4

**Q.** For A29G C104U U112G, which “polymerase ribozyme fitness (log ratio)” value is on record?
**A.** 1.06

**Q.** For C28U C82A C94A U125G, which “polymerase ribozyme fitness (log ratio)” value is on record?
**A.** -4.37

**Q.** For A29G A105C, which “polymerase ribozyme fitness (log ratio)” value is on record?
**A.** -7.42

**Q.** For U32A C70U C115G, which “polymerase ribozyme fitness (log ratio)” value is on record?
**A.** -5.23

**Q.** Which “polymerase ribozyme fitness (log ratio)” value does the source give for A29U U126C here?
**A.** -2.33
